Substitutions are numbered along the chain they refer to.
B1: full-length Imp2 purified from S. pombe (natural protein, UniProt Q10199 1-670, looked up)
chain: MSQQLSFNASSAKPDKSFSNYFWGANDEGYHALLSRFSDVKHINEELRSFYHERANIEEDYAKRMAKLSRTTFSSLETGCLKESVQVMKAEVDNMAKSHLQISQLLQDDVENAFTRYAASLKDKKKMIVSGIEKVHKDKLSKHQALVKAQDKYHYLCKKVNYYVSQQNMLFGKELEKNNAKLNKTQNAITASSSDYQSAVAAVRDSYARWTNEWRSTCDKLQDIEEERRHFLKSVMWTFTLLISRSCFNDDQACERIRKNLEQCSVSQDVLEFIDAKSTGTGIPQPPKFYDYYKGEVPDDSVELVQANFQRAQTKIENDNMPLNRPYVLSATARNESSFENTLPNTPSAIQSLTTVSSNSSQNGRSSPKKSFLSKFKLTSRPSTPNVGNTAPDALSSPRNDSPLTSAADEQMKHLSLQEEPKQNPTPAAPGAFPNSNTLPPRYNELGSLPSPNSVSFTEDSRPNVNTPSRRQQIQEEFGSVLQMENRAVSPVYDSRKNGSRSSFTLRKSRSPKRPSSSLSQNASRLPRSLTPGNLEPNYDFGVRVDPASGTAPTDDEPYTDRDSSFVDDTINTKATGNTSNRLSLPAYPTDGGDTSIDNPTSTDGQRILGYVSALYDYDAAIPEEISFRKGDTIAVLKLYEDGWWEGFVVGEDDHNRGQFPSNFVREIEV
B2: Imp2(Dimer-Dimer-4A) purified from S. pombe (natural protein, UniProt Q10199 1-670, looked up)
chain: B1 chain with K97A, Q101A, D109A, R116A

Target: the molecule itself
Assay: AUC

| Protein | binding result | stoichiometry N |
| --- | --- | --- |
| B1 | binds |  |
| B2 |  | 2 |

Reference: paper PMC4731314 (Cell reports, 2016)
